Results reported in paper PMC12599251, “Nitration-driven structural changes in Hsp90 linked to gain of pathological functions” (Biochemical Journal, 2025).

B1: Human Hsp90β with Y33 and Y56 replaced by phenylalanine, treated with 0.5 mM peroxynitrite (natural protein)
chain: not shown
modifications: oxidised with 0.5 mM peroxynitrite; Y276, Y484 and Y596 are named as also prone to nitration
notes: Human Hsp90β, UniProtKB P08238, gene HSP90AB1; Y33 and Y56 replaced by phenylalanine, oxidised in vitro with peroxynitrite; Peroxynitrite gives a mixed product; also called Hsp90^F33-56 + ONOO^-; Hsp90^F33-F56 + ONOO^-; source: E. coli BL21-AI, purified (Ni-NTA, Sephacryl-300 SEC), then treated with 0.5 mM peroxynitrite
B2: Human Hsp90β with Y33 and Y56 replaced by phenylalanine (natural protein)
chain: not shown
notes: Human Hsp90β, UniProtKB P08238, gene HSP90AB1; Y33 and Y56 replaced by nitration-resistant phenylalanine; also called Hsp90^F33-56; Hsp90^F33-F56; source: E. coli BL21-AI, purified (Ni-NTA, Sephacryl-300 SEC)

Biological target: the molecule itself
Assay: AUC; sedimentation velocity, 42,000 rpm, 20°C, 11-15 uM protein, absorbance at 280 nm, continuous c(S) distribution (SEDFIT); peroxynitrite-treated samples dialyzed beforehand

Protein | stoichiometry N
B1 | 2
B2 | 2
